From publication PMC11098746 (2024) come the findings set out here.

The target in this assay is Circumsporozoite protein (CSP) (Plasmodium falciparum (isolate 3D7), UniProt Q7K740). The assay can be described thus: AVEXIS screen signal:noise (double-corrected).

No end group written: not given here.

Circumsporozoite protein (CSP), sequence (Q7K740 19-374): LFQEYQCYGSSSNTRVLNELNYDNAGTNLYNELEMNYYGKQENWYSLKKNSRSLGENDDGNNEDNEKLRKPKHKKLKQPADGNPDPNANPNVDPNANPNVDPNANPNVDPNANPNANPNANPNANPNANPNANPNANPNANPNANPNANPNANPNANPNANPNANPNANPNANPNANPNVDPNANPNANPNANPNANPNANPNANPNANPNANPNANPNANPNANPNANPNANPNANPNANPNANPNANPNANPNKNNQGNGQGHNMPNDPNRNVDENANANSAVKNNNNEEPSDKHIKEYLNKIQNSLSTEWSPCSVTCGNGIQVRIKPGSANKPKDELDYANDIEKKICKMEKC

B1: ADP147 (protein)
chain: MAACGRVRRMFRLSAALHLLLLFAAGAEKLPGQGVHSQGQGPGANFVSFVGQAGGGGPAGQQLPQLPQSSQLQQQQQQQQQQQQPQPPQPPFPAGGPPARRGGAGAGGGWKLAEEESCREDVTRVCPKHTWSNNLAVLECLQDVREPENEISSDCNHLLWNYKLNLTTDPKFESVAREVCKSTITEIKECADEPVGKGYMVSCLVDHRGNITEYQCHQYITKMTAIIFSDYRLICGFMDDCKNDINILKCGSIRLGEKDAHSQGEVVSCLEKGLVKEAEEREPKIQVSELCKKAILRVAELSSDDFHLDRHLYFACRDDRERFCENTQAGEGRVYKCLFNHKFEESMSEKCREALTTRQKLIAQDYKVSYSLAKSCKSDLKKYRCNVENLPRSREARLSYLLMCLESAVHRGRQVSSECQGEMLDYRRMLMEDFSLSPEIILSCRGEIEHHCSGLHRKGRTLHCLMKVVRGEKGNLGMNCQQALQTLIQETDPGADYRIDRALNEACESVIQTACKHIRSGDPMILSCLMEHLYTEKMVEDCEHRLLELQYFISRDWKLDPVLYRKCQGDASRLCHTHGWNETSEFMPQGAVFSCLYRHAYRTEEQGRRLSRECRAEVQRILHQRAMDVKLDPALQDKCLIDLGKWCSEKTETGQELECLQDHLDDLVVECRDIVGNLTELESEDIQIEALLMRACEPIIQNFCHDVADNQIDSGDLMECLIQNKHQKDMNEKCAIGVTHFQLVQMKDFRFSYKFKMACKEDVLKLCPNIKKKVDVVICLSTTVRNDTLQEAKEHRVSLKCRRQLRVEELEMTEDIRLEPDLYEACKSDIKNFCSAVQYGNAQIIECLKENKKQLSTRCHQKVFKLQETEMMDPELDYTLMRVCKQMIKRFCPEADSKTMLQCLKQNKNSELMDPKCKQMITKRQITQNTDYRLNPMLRKACKADIPKFCHGILTKAKDDSELEGQVISCLKLRYADQRLSSDCEDQIRIIIQESALDYRLDPQLQLHCSDEISSLCAEEAAAQEQTGQVEECLKVNLLKIKTELCKKEVLNMLKESKADIFVDPVLHTACALDIKHHCAAITPGRGRQMSCLMEALEDKRVRLQPECKKRLNDRIEMWSYAAKVAPADGFSDLAMQVMTSPS
modifications: bait human Fc-tagged dimer
Molecule B1 had a binding score of 0.989.

B2: ADP104 (protein)
chain: MEPPDAPAQARGAPRLLLLAVLLAAHPDAQAEVRLSVPPLVEVMRGKSVILDCTPTGTHDHYMLEWFLTDRSGARPRLASAEMQGSELQVTMHDTRGRSPPYQLDSQGRLVLAEAQVGDERDYVCVVRAGAAGTAEATARLNVFAKPEATEVSPNKGTLSVMEDSAQEIATCNSRNGNPAPKITWYRNGQRLEVPVEMNPEGYMTSRTVREASGLLSLTSTLYLRLRKDDRDASFHCAAHYSLPEGRHGRLDSPTFHLTLHYPTEHVQFWVGSPSTPAGWVREGDTVQLLCRGDGSPSPEYTLFRLQDEQEEVLNVNLEGNLTLEGVTRGQSGTYGCRVEDYDAADDVQLSKTLELRVAYLDPLELSEGKVLSLPLNSSAVVNCSVHGLPTPALRWTKDSTPLGDGPMLSLSSITFDSNGTYVCEASLPTVPVLSRTQNFTLLVQGSPELKTAEIEPKADGSWREGDEVTLICSARGHPDPKLSWSQLGGSPAEPIPGRQGWVSSSLTLKVTSALSRDGISCEASNPHGNKRHVFHFGTVSPQTSQAG
modifications: bait human Fc-tagged dimer
B2 came in with a binding score of 1.08.

MASLGHILVFCVGLLTMAKAESPKEHDPFTYDYQS (also: human Fc-tagged dimer) [ADP327] had a binding score of 1.89.

B3: ADP333 (protein)
chain: MASVVLPSGSQCAAAAAAAAPPGLRLRLLLLLFSAAALIPTGDGQNLFTKDVTVIEGEVATISCQVNKSDDSVIQLLNPNRQTIYFRDFRPLKDSRFQLLNFSSSELKVSLTNVSISDEGRYFCQLYTDPPQESYTTITVLVPPRNLMIDIQKDTAVEGEEIEVNCTAMASKPATTIRWFKGNTELKGKSEVEEWSDMYTVTSQLMLKVHKEDDGVPVICQVEHPAVTGNLQTQRYLEVQYKPQVHIQMTYPLQGLTREGDALELTCEAIGKPQPVMVTWVRVDDEMPQHAVLSGPNLFINNLNKTDNGTYRCEASNIVGKAHSDYMLYVYDPPTTIPPPTT
modifications: bait human Fc-tagged dimer
The molecule B3 returned a binding score of 1.11.

B4: ADP316 (protein)
chain: MAAAGAAVARSPGIGAGPALRARRSPPPRAARLPRLLVLLAAAAVGPGAGGAARLYRAGEDAVWVLDSGSVRGATANSSAAWLVQFYSSWCGHCIGYAPTWRALAGDVRDWASAIRVAALDCMEEKNQAVCHDYDIHFYPTFRYFKAFTKEFTTGENFKGPDRELRTVRQTMIDFLQNHTEGSRPPACPRLDPIQPSDVLSLLDNRGSHYVAIVFESNSSYLGREVILDLIPYESIVVTRALDGDKAFLEKLGVSSVPSCYLIYPNGSHGLINVVKPLRAFFSSYLKSLPDVRKKSLPLPEKPHKEENSEIVVWREFDKSKLYTVDLESGLHYLLRVELAAHKSLAGAELKTLKDFVTVLAKLFPGRPPVKKLLEMLQEWLASLPLDRIPYNAVLDLVNNKMRISGIFLTNHIKWVGCQGSRSELRGYPCSLWKLFHTLTVEASTHPDALVGTGFEDDPQAVLQTMRRYVHTFFGCKECGEHFEEMAKESMDSVKTPDQAILWLWKKHNMVNGRLAGHLSEDPRFPKLQWPTPDLCPACHEEIKGLASWDEGHVLTFLKQHYGRDNLLDTYSADQGDSSEGGTLARGEEEEKRLTPPEVSHGDRDTQSVRPPGALGPRPALPESLHHSLDGKLQSLDGPGAHKEVGGAAPFLGVDFSSLDM
modifications: bait human Fc-tagged dimer
The molecule B4 gave a binding score of 1.06.

B5: ADP302 (protein)
chain: MAAWKSWTALRLCATVVVLDMVVCKGFVEDLDESFKENRNDDIWLVDFYAPWCGHCKKLEPIWNEVGLEMKSIGSPVKVGKMDATSYSSIASEFGVRGYPTIKLLKGDLAYNYRGPRTKDDIIEFAHRVSGALIRPLPSQQMFEHMQKRHRVFFVYVGGESPLKEKYIDAASELIVYTYFFSASEEVVPEYVTLKEMPAVLVFKDETYFVYDEYEDGDLSSWINRERFQNYLAMDGFLLYELGDTGKLVALAVIDEKNTSVEHTRLKSIIQEVARDYRDLFHRDFQFGHMDGNDYINTLLMDELTVPTVVVLNTSNQQYFLLDRQIKNVEDMVQFINNILDGTVEAQGGDSILQRLKRIVFDAKSTIVSIFKSSP
modifications: bait human Fc-tagged dimer
Take B5: the binding score was determined as 1.19.

B6: ADP359 (protein)
chain: MAAEWASRFWLWATLLIPAAAVYEDQVGKFDWRQQYVGKVKFASLEFSPGSKKLVVATEKNVIAALNSRTGEILWRHVDKGTAEGAVDAMLLHGQDVITVSNGGRIMRSWETNIGGLNWEITLDSGSFQALGLVGLQESVRYIAVLKKTTLALHHLSSGHLKWVEHLPESDSIHYQMVYSYGSGVVWALGVVPFSHVNIVKFNVEDGEIVQQVRVSTPWLQHLSGACGVVDEAVLVCPDPSSRSLQTLALETEWELRQIPLQSLDLEFGSGFQPRVLPTQPNPVDASRAQFFLHLSPSHYALLQYHYGTLSLLKNFPQTALVSFATTGEKTVAAVMACRNEVQKSSSSEDGSMGSFSEKSSSKDSLACFNQTYTINLYLVETGRRLLDTTITFSLEQSGTRPERLYIQVFLKKDDSVGYRALVQTEDHLLLFLQQLAGKVVLWSREESLAEVVCLEMVDLPLTGAQAELEGEFGKKADGLLGMFLKRLSSQLILLQAWTSHLWKMFYDARKPRSQIKNEINIDTLARDEFNLQKMMVMVTASGKLFGIESSSGTILWKQYLPNVKPDSSFKLMVQRTTAHFPHPPQCTLLVKDKESGMSSLYVFNPIFGKWSQVAPPVLKRPILQSLLLPVMDQDYAKVLLLIDDEYKVTAFPATRNVLRQLHELAPSIFFYLVDAEQGRLCGYRLRKDLTTELSWELTIPPEVQRIVKVKGKRSSEHVHSQGRVMGDRSVLYKSLNPNLLAVVTESTDAHHERTFIGIFLIDGVTGRIIHSSVQKKAKGPVHIVHSENWVVYQYWNTKARRNEFTVLELYEGTEQYNATAFSSLDRPQLPQVLQQSYIFPSSISAMEATITERGITSRHLLIGLPSGAILSLPKALLDPRRPEIPTEQSREENLIPYSPDVQIHAERFINYNQTVSRMRGIYTAPSGLESTCLVVAYGLDIYQTRVYPS
modifications: bait human Fc-tagged dimer
In turn, B6 gave a binding score of 0.432.

B7: ADP133 (protein)
chain: MAPLRPLLILALLAWVALADQESCKGRCTEGFNVDKKCQCDELCSYYQSCCTDYTAECKPQVTRGDVFTMPEDEYTVYDDGEEKNNATVHEQVGGPSLTSDLQAQSKGNPEQTPVLKPEEEAPAPEVGASKPEGIDSRPETLHPGRPQPPAEEELCSGKPFDAFTDLKNGSLFAFRGQYCYELDEKAVRPGYPKLIRDVWGIEGPIDAAFTRINCQGKTYLFKGSQYWRFEDGVLDPDYPRNISDGFDGIPDNVDAALALPAHSYSGRERVYFFKGKQYWEYQFQHQPSQEECEGSSLSAVFEHFAMMQRDSWEDIFELLFWGRTSAGTRQPQFISRDWHGVPGQVDAAMAGRIYISGMAPRPSLAKKQRFRHRNRKGYRSQRGHSRGRNQNSRRPSRATWLSLFSSEESNLGANNYDDYRMDWLVPATCEPIQSVFFFSGDKYYRVNLRTRRVDTVDPPYPRSIAQYWLGCPAPGHL
modifications: bait human Fc-tagged dimer
With B7, the binding score turned out to be 1.13.

B8: ADP273 (protein)
chain: RGSCQACGDSVLVVSEDVNYEPDLDFHQGRLYWSDLQAMFLQFLGEGRLEDTIRQTSLRERVAGSAGMAALTQDIRAALSRQKLDHVWTDTHYVGLQFPDPAHPNTLHWVDEAGKVGEQLPLEDPDVYCPYSAIGNVTGELVYAHYGRPEDLQDLRARGVDPVGRLLLVRVGVISFAQKVTNAQDFGAQGVLIYPEPADFSQDPPKPSLSSQQAVYGHVHLGTGDPYTPGFPSFNQTQFPPVASSGLPSIPAQPISADIASRLLRKLKGPVAPQEWQGSLLGSPYHLGPGPRLRLVVNNHRTSTPINNIFGCIEGRSEPDHYVVIGAQRDAWGPGAAKSAVGTAILLELVRTFSSMVSNGFRPRRSLLFISWDGGDFGSVGSTEWLEGYLSVLHLKAVVYVSLDNAVLGDDKFHAKTSPLLTSLIESVLKQVDSPNHSGQTLYEQVVFTNPSWDAEVIRPLPMDSSAYSFTAFVGVPAVEFSFMEDDQAYPFLHTKEDTYENLHKVLQGRLPAVAQAVAQLAGQLLIRLSHDRLLPLDFGRYGDVVLRHIGNLNEFSGDLKARGLTLQWVYSARGDYIRAAEKLRQEIYSSEERDERLTRMYNVRIMRVEFYFLSQYVSPADSPFRHIFMGRGDHTLGALLDHLRLLRSNSSGTPGATSSTGFQESRFRRQLALLTWTLQGAANALSGDVWNIDNNF
modifications: bait human Fc-tagged dimer
B8: the binding score stood at 0.72.
